Source: publication PMC7806871 (Cell Death Discovery, 2021)

Molecular target: T1, Tuberculosis necrotizing toxin (TNT), C-terminal domain of CpnT, recombinant TNT-His6x (M. tuberculosis, UniProt O05442 648-846)
T1 construct: not shown: His6, C-terminal, kept
T1 sequence: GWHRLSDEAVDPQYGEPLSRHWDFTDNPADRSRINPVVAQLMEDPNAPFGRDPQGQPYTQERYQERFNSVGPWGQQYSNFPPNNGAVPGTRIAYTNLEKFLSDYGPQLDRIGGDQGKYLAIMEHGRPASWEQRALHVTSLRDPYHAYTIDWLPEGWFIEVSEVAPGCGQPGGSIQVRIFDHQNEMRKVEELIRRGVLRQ
Test: ELISA
Details: both partners purified

B1: Immunity factor for TNT (IFT), recombinant IFT-His6x (natural protein)
chain: TIGVDLSTDLQDWIRLSGMNMIQGSETNDGRTILWNKGGEVRYFIDRLAGWYVITSSDRMSREGYEFAAASMSVIEKYLYGYFGGSVRSERELPAIRAPFQPEELMPEYSIGTMTFAGRQRDTLIDSSGTVVAITAADRLVELSHYLDVSVNVIKDSFLDSEGKPLFTLWKDYKG
notes: not shown: His6, C-terminal, kept
binding result: binds
